Measurements reported in the supplement of paper PMC9233669.
This sample holds only a part of the variants without activity.

Tested on: biotinyl-Phe-oxazolone
Experiment: self-aminoacylation, catalytic enhancement (BFO) (fold over background); higher = more active; k-Seq, kA / k0A0; sequences stand for … in GGGAAUGGAUCCACAUCUACGAAUUC…UUCACUGCAGACUUGACGAAGCUG
In short: (§1)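 The uncatalyzed rate is the low-activity peak of a bimodal Gaussian fit, and catalytic enhancement is median kA divided by it. The kA values came from pseudo-first-order fits, with 1000 bootstraps, of per-sequence fraction reacted measured by streptavidin capture, triplicate qPCR and Illumina sequencing. Mutagenized RNA pools with a 21-nt variable region (0.43 μM) were reacted with each biotinyl-aminoacyl-oxazolone at 2–1250 μM in 50 μL HEPES/NaCl/KCl/MgCl2/CaCl2 buffer with 5% acetonitrile, pH 6.9–7.0, for 90 minutes at room temperature.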

**Q.** “AAAUUUGCUAAUAGUCGAAAG [Fam3.1 aminoacylation ribozyme variant]” was tested. Which self-aminoacylation did it give?
**A.** 4.94

**Q.** With “AAAUUUGCUAAUAGUCGCAAG [Fam3.1 aminoacylation ribozyme variant]” as the sequence, how does the self-aminoacylation read?
**A.** 4

**Q.** “AAAUUUGCUAAUAGUCUCAAG [Fam3.1 aminoacylation ribozyme variant]” was tested. Which self-aminoacylation did it give?
**A.** 2.03

**Q.** Which self-aminoacylation does the source give for “AAGAUUGCUAAUAGUCACAAG [Fam3.1 aminoacylation ribozyme variant]” here?
**A.** 2.63

**Q.** For “AAGAUUGCUAAUAGUCGUAAG [Fam3.1 aminoacylation ribozyme variant]”, which self-aminoacylation is on record?
**A.** 9.9

**Q.** For “AAGAUUGCUUAUAGUCGCAAG [Fam3.1 aminoacylation ribozyme variant]”, which self-aminoacylation is on record?
**A.** 2.44

**Q.** How did the self-aminoacylation turn out when “AAGGUAGCUAAUAGUCGCAAG [Fam3.1 aminoacylation ribozyme variant]” was run?
**A.** 3.35

**Q.** Which self-aminoacylation does the source give for “AAGGUUACUAAUAGUCGCAAG [Fam3.1 aminoacylation ribozyme variant]” here?
**A.** 2.19

**Q.** How did the self-aminoacylation turn out when “AAGGUUGCUAAUAGUCGCCAG [Fam3.1 aminoacylation ribozyme variant]” was run?
**A.** 2.54

**Q.** For “AAGGUUGCUUAUAGUCGCAAG [Fam3.1 aminoacylation ribozyme variant]”, which self-aminoacylation is on record?
**A.** 2.7

**Q.** How did the self-aminoacylation turn out when “AAGUAUACUAAUAGUCGCAAG [Fam3.1 aminoacylation ribozyme variant]” was run?
**A.** 2.34

**Q.** With “AAGUCUGCUAAUAGUCGCAAU [Fam3.1 aminoacylation ribozyme variant]” as the sequence, how does the self-aminoacylation read?
**A.** 6.06

**Q.** “AAGUUAGCUAAUAGUCACAAG [Fam3.1 aminoacylation ribozyme variant]” was tested. Which self-aminoacylation did it give?
**A.** 3.83

**Q.** How did the self-aminoacylation turn out when “AAGUUAGCUAAUAGUCGCAAU [Fam3.1 aminoacylation ribozyme variant]” was run?
**A.** 2.2

**Q.** For “AAGUUAGCUAAUAGUCGCACG [Fam3.1 aminoacylation ribozyme variant]”, which self-aminoacylation is on record?
**A.** 2.06

**Q.** “AAGUUCGCUAAUAGUCGAAAG [Fam3.1 aminoacylation ribozyme variant]” was tested. Which self-aminoacylation did it give?
**A.** 4.18

**Q.** Which self-aminoacylation does the source give for “AAGUUGGCUAAUAGUCGCCAG [Fam3.1 aminoacylation ribozyme variant]” here?
**A.** 2.1

**Q.** For “AAGUUGGCUAAUAGUCGCUAG [Fam3.1 aminoacylation ribozyme variant]”, which self-aminoacylation is on record?
**A.** 2.22

**Q.** Which self-aminoacylation does the source give for “AAGUUUACGAAUAGUCGCAAG [Fam3.1 aminoacylation ribozyme variant]” here?
**A.** 2.82

**Q.** With “AAGUUUACUAAUAGUUGCAAG [Fam3.1 aminoacylation ribozyme variant]” as the sequence, how does the self-aminoacylation read?
**A.** 2.19

**Q.** How did the self-aminoacylation turn out when “AAGUUUGCGGAUAGUCGCAAG [Fam3.1 aminoacylation ribozyme variant]” was run?
**A.** 2.73

**Q.** With “AAGUUUGCUAAUAAUCGUAAG [Fam3.1 aminoacylation ribozyme variant]” as the sequence, how does the self-aminoacylation read?
**A.** 3.54

**Q.** With “AAGUUUGCUAAUAGUCGCAAA [Fam3.1 aminoacylation ribozyme variant]” as the sequence, how does the self-aminoacylation read?
**A.** 2.2

**Q.** How did the self-aminoacylation turn out when “AAGUUUGCUAAUAGUCGCCUG [Fam3.1 aminoacylation ribozyme variant]” was run?
**A.** 7.8

**Q.** For “AAGUUUGCUAAUUGUCGCAAU [Fam3.1 aminoacylation ribozyme variant]”, which self-aminoacylation is on record?
**A.** 6.81

**Q.** “AAGUUUGUUAAAAGUCGCAAG [Fam3.1 aminoacylation ribozyme variant]” was tested. Which self-aminoacylation did it give?
**A.** 2.4

**Q.** How did the self-aminoacylation turn out when “AAGUUUUCUAAUAGUCUCAAG [Fam3.1 aminoacylation ribozyme variant]” was run?
**A.** 2.15

**Q.** For “AAGUUUUCUAGUAGUCGCAAG [Fam3.1 aminoacylation ribozyme variant]”, which self-aminoacylation is on record?
**A.** 2.53

**Q.** For “AAUUUUGCUAAUAGUCACAAG [Fam3.1 aminoacylation ribozyme variant]”, which self-aminoacylation is on record?
**A.** 3.77

**Q.** For “AUAACCCUGGUCGUCGAGUGA [Fam2.1 aminoacylation ribozyme variant]”, which self-aminoacylation is on record?
**A.** 2.78

**Q.** “AUACUUCAAACAAUCGGUCUA [Fam1A.1 aminoacylation ribozyme variant]” was tested. Which self-aminoacylation did it give?
**A.** 3.14

**Q.** For “AUACUUCAAACAAUCUGUCUG [Fam1A.1 aminoacylation ribozyme variant]”, which self-aminoacylation is on record?
**A.** 2.2

**Q.** Which self-aminoacylation does the source give for “AUCUUUGCUAAUAGUCGCAAG [Fam3.1 aminoacylation ribozyme variant]” here?
**A.** 2.44

**Q.** How did the self-aminoacylation turn out when “AUGUUUGCUAAUAGUCGCAAU [Fam3.1 aminoacylation ribozyme variant]” was run?
**A.** 2.83

**Q.** Which self-aminoacylation does the source give for “AUGUUUGCUACUAGUCGCAAG [Fam3.1 aminoacylation ribozyme variant]” here?
**A.** 2.12

**Q.** With “AUGUUUGCUCAUAGUCGCAAG [Fam3.1 aminoacylation ribozyme variant]” as the sequence, how does the self-aminoacylation read?
**A.** 2.41

**Q.** For “AUUACCCUGGUCAGCGAGUGC [Fam2.1 aminoacylation ribozyme variant]”, which self-aminoacylation is on record?
**A.** 8.87

**Q.** Which self-aminoacylation does the source give for “AUUCACCUACGUCAUCGGGUU [Fam2.2 aminoacylation ribozyme variant]” here?
**A.** 2.52

**Q.** With “AUUCACCUAGGUAAUCGAGUG [Fam2.2 aminoacylation ribozyme variant]” as the sequence, how does the self-aminoacylation read?
**A.** 2.87

**Q.** How did the self-aminoacylation turn out when “AUUCACCUAGGUCACCUGGUG [Fam2.2 aminoacylation ribozyme variant]” was run?
**A.** 8.5

**Q.** “AUUCACCUAGGUCGUCGGGUC [Fam2.2 aminoacylation ribozyme variant]” was tested. Which self-aminoacylation did it give?
**A.** 5.09

**Q.** How did the self-aminoacylation turn out when “AUUCACCUAGGUCUUCGUGUG [Fam2.2 aminoacylation ribozyme variant]” was run?
**A.** 5.39

**Q.** Which self-aminoacylation does the source give for “AUUCGCCUAGGUCAUCGGUUG [Fam2.2 aminoacylation ribozyme variant]” here?
**A.** 4.32

**Q.** With “AUUCUCCUAGGUCAUCGUGUG [Fam2.2 aminoacylation ribozyme variant]” as the sequence, how does the self-aminoacylation read?
**A.** 3.73

**Q.** “AUUGACCUAGGUCAUCGGGUC [Fam2.2 aminoacylation ribozyme variant]” was tested. Which self-aminoacylation did it give?
**A.** 3.83

**Q.** Which self-aminoacylation does the source give for “CAACUUCACACAAUCGGUCUG [Fam1A.1 aminoacylation ribozyme variant]” here?
**A.** 3.02

**Q.** For “CCACACAUCAAUCAAUCGGUC [Fam1B.1 aminoacylation ribozyme variant]”, which self-aminoacylation is on record?
**A.** 2.22

**Q.** How did the self-aminoacylation turn out when “CCACACUUCAAGCAAUCGAUC [Fam1B.1 aminoacylation ribozyme variant]” was run?
**A.** 2.02

**Q.** “CCACUGCAAACAAUCGGUCUG [Fam1A.1 aminoacylation ribozyme variant]” was tested. Which self-aminoacylation did it give?
**A.** 4.13

**Q.** How did the self-aminoacylation turn out when “CGACUGCAAACAAUCGGUCUG [Fam1A.1 aminoacylation ribozyme variant]” was run?
**A.** 6.2

**Q.** For “CGACUUCAAACAAUCGAUCUG [Fam1A.1 aminoacylation ribozyme variant]”, which self-aminoacylation is on record?
**A.** 3.21

**Q.** Which self-aminoacylation does the source give for “CUACUCCAAACAAUCGGUUUG [Fam1A.1 aminoacylation ribozyme variant]” here?
**A.** 2.1

**Q.** Which self-aminoacylation does the source give for “CUACUGCAAACAAGCGGUCUG [Fam1A.1 aminoacylation ribozyme variant]” here?
**A.** 5.58

**Q.** For “CUACUGCAAACAAUCGGUCCG [Fam1A.1 aminoacylation ribozyme variant]”, which self-aminoacylation is on record?
**A.** 6.96

**Q.** “CUACUGCAAACAAUCGGUGUG [Fam1A.1 aminoacylation ribozyme variant]” was tested. Which self-aminoacylation did it give?
**A.** 3.44

**Q.** For “CUACUUCAAACAAUCGCUCUG [Fam1A.1 aminoacylation ribozyme variant]”, which self-aminoacylation is on record?
**A.** 2.58

**Q.** For “CUACUUCAAACAAUCGGCCCG [Fam1A.1 aminoacylation ribozyme variant]”, which self-aminoacylation is on record?
**A.** 3.03

**Q.** With “CUACUUCAAACAAUCGGCCUU [Fam1A.1 aminoacylation ribozyme variant]” as the sequence, how does the self-aminoacylation read?
**A.** 2.48

**Q.** For “CUAUUUCAACCAAUCGGUCUG [Fam1A.1 aminoacylation ribozyme variant]”, which self-aminoacylation is on record?
**A.** 2.27

**Q.** For “CUCCAUCAAACAAUCGGUCUG [Fam1A.1 aminoacylation ribozyme variant]”, which self-aminoacylation is on record?
**A.** 2.14

**Q.** For “CUCCUUCAAACACUCGGUCUG [Fam1A.1 aminoacylation ribozyme variant]”, which self-aminoacylation is on record?
**A.** 6.18

**Q.** With “GAGUUUGCUAAUAGCCGCAAG [Fam3.1 aminoacylation ribozyme variant]” as the sequence, how does the self-aminoacylation read?
**A.** 4.21

**Q.** How did the self-aminoacylation turn out when “GAGUUUGCUAAUAGUCGCACG [Fam3.1 aminoacylation ribozyme variant]” was run?
**A.** 3

**Q.** “GAGUUUGCUAAUCGUCGCAAG [Fam3.1 aminoacylation ribozyme variant]” was tested. Which self-aminoacylation did it give?
**A.** 2.55

**Q.** For “GAGUUUGUUAAUAGUCGCAAG [Fam3.1 aminoacylation ribozyme variant]”, which self-aminoacylation is on record?
**A.** 2.36

**Q.** “GUACAUCAAACAAUCGGUCUG [Fam1A.1 aminoacylation ribozyme variant]” was tested. Which self-aminoacylation did it give?
**A.** 2

**Q.** Which self-aminoacylation does the source give for “GUACCUCAAACAAUCGGUCUG [Fam1A.1 aminoacylation ribozyme variant]” here?
**A.** 2.42

**Q.** Which self-aminoacylation does the source give for “UCGUUUGCUAAUAGUCGCAAG [Fam3.1 aminoacylation ribozyme variant]” here?
**A.** 4.06

Tested on: biotinyl-Trp-oxazolone
Experiment: self-aminoacylation, catalytic enhancement (BWO) (fold over background); higher = more active; k-Seq, kA / k0A0; sequences stand for … in GGGAAUGGAUCCACAUCUACGAAUUC…UUCACUGCAGACUUGACGAAGCUG
In short: as §1

**Q.** For “AAAUUUGCUAAUAGUCGCAAG [Fam3.1 aminoacylation ribozyme variant]”, which self-aminoacylation is on record?
**A.** 2.13

**Q.** Which self-aminoacylation does the source give for “AAGAUUGAUAAUAGUCGCAAG [Fam3.1 aminoacylation ribozyme variant]” here?
**A.** 2.33

**Q.** With “AAGAUUGCUAAUAGUCGUAAG [Fam3.1 aminoacylation ribozyme variant]” as the sequence, how does the self-aminoacylation read?
**A.** 2.41

**Q.** Which self-aminoacylation does the source give for “AAGAUUGCUUAUAGUCGCAAG [Fam3.1 aminoacylation ribozyme variant]” here?
**A.** 2.35

**Q.** “AUGACCCUGGUCAUCGAGUCA [Fam2.1 aminoacylation ribozyme variant]” was tested. Which self-aminoacylation did it give?
**A.** 2.12

**Q.** How did the self-aminoacylation turn out when “AUUACCCUGGUCAUCCAGUAA [Fam2.1 aminoacylation ribozyme variant]” was run?
**A.** 2.35

**Q.** For “AUUACCCUGGUCAUGGAGUGG [Fam2.1 aminoacylation ribozyme variant]”, which self-aminoacylation is on record?
**A.** 2.54

**Q.** For “AUUACCGUGGUCAUCGAGCGA [Fam2.1 aminoacylation ribozyme variant]”, which self-aminoacylation is on record?
**A.** 2.2

**Q.** Which self-aminoacylation does the source give for “CCGCACUUCAAGCAAUCGGUA [Fam1B.1 aminoacylation ribozyme variant]” here?
**A.** 2.16

**Q.** Which self-aminoacylation does the source give for “CUUCACCUAGGUCAUCGGGAG [Fam2.2 aminoacylation ribozyme variant]” here?
**A.** 2.1

**Q.** How did the self-aminoacylation turn out when “GUUCACCUAGGUCAUCGGGAG [Fam2.2 aminoacylation ribozyme variant]” was run?
**A.** 2.13
